Assays:
Cx43 hemichannels [1] = biological target: T1, Cx43 hemichannels (Homo sapiens, UniProt P17302); assay: Extracellular ATP release after irradiation, TICAE cells; format: cell-based
T1 construct: endogenous in cells; host or cells: TICAE and TIME cells (human endothelial cell lines)
Procedure: Hemichannels are an ATP release pathway and we therefore determined extracellular ATP after irradiation. To that purpose, TICAE and TIME cells were seeded in a 96-well plate at a density of 1×10^5 cells/well and 0.3×10^5 cells/well, respectively, in six to eight biological replicates. Three days later, cells reached 100% confluence. At 30 minutes before irradiation, cells were refreshed with 100 μl medium alone or with medium supplemented with 100 μM TAT-Gap19 (Genosphere Biotechnologies, Paris, France) to block the Cx43 hemichannels. For fractionated irradiation, cells were refreshed with 150 μl medium/well. At different time points after irradiation (1, 6 and 72 h), 1:5 ATP assay mix dissolved in ATP mix dilution buffer (Sigma-Aldrich Co. LCC, Diegem, Belgium) was added to each well. Extracellular ATP release was assessed by measuring the luminescence signal received after oxidation of luciferin and ATP to oxyluciferin and AMP using the CLARIOstar® microplate reader (BMG Labtech, Temse, Belgium). Experiments were corrected for baseline ATP signal in medium in the absence or presence of TAT-Gap19.

Cx43 hemichannels [2] = biological target: T1, Cx43 hemichannels; assay: Propidium iodide dye uptake assay after irradiation, TIME cells; format: cell-based
Excerpt: Hemichannel opening was also investigated by dye uptake studies making use of the hemichannel permeable fluorescent tracer propidium iodide (PI; MW 668.4 Da). In addition, dextran fluorescein 10 kDa dye was used to assess membrane integrity and occurrence of cell death. PI stains cells with open hemichannels, late apoptotic and necrotic cells, while dextran fluorescein only stains late apoptotic and necrotic cells. Therefore, PI-positive and dextran fluorescein-negative cells are a measure for hemichannel opening while dextran fluorescein-positive cells are a measure for dead cells.
TICAE and TIME cells were seeded in a 24-well plate at a density of 1.25×10^5 and 1.5×10^5 cells/well, respectively, in six biological replicates. Three days later, cells reached 100% confluence. Thirty minutes before irradiation, cells were refreshed with 1 ml medium alone or with medium supplemented with 100 μM TAT-Gap19 (Genosphere Biotechnologies, Paris, France). For fractionated irradiation, cells were refreshed with 1.5 ml medium/well. […] Finally, the fluorescence was measured using an IncuCyte ZOOM® system (Essen BioScience, Ann Arbor, Mich., USA) by using different channels (TRITC, FITC and phase contrast) and a 10× objective Fluorescence signal was normalized to cell number.

[3] = tested on: primary brain microvascular endothelial cells (pBMECs); assay: γ-H2AX counts after local 3×3 mm X-ray irradiation (irradiated and bystander zones), pBMECs; format: cell-based, mouse; conditions: 1 Gy, 3 h post-irradiation
Procedure: Cortices, from 10-12 week old mice, were isolated by removing cerebellum, striatum, optic nerves, brain white matter, outer vessels and meninges. After homogenization with a Dounce homogenizer in WBB (Washing Buffer B: HMS, 10 mM Hepes, 0.35 g/L NaHCO3, 0.1% BSA), the homogenate was mixed with 30% dextran in WBB and centrifuged at 3000×g for 25 min at 4° C. The pellet containing the vascular component was then resuspended in WBB and filtered through a 60 μm NY60 Nylon Net Filter (Millipore, Darmstadt, Germany). Following centrifugation at 1000×g for 7 min at room temperature, the pellet was digested in collagenase/dispase supplement with DNase I (Roche Diagnostics, Vilvoorde, Belgium) and TLCK (Tosyl, Lysin chloromethyl ketone, sigma-aldrich) for 33 min at 37° C. in a shaking water bath. The digested capillary suspension was then seeded after multiple washing steps on wells coated with matrigel or glass coated with Corning Cell-Tak (VWR, Leuven, Belgium). For the isolation of intact capillaries the protocol was aborted just before the digestion step.
A defined area of the cell culture dishes were exposed to X-rays (1Gy or 20 Gy) by using a small animal radiation research platform (SARRP, Xstrahl, 220 kV, 13 mA), making use of a 3×3 mm collimator. Whole dish irradiation was done using a 10×10 cm broad-beam collimator, while localized Irradiation was performed with a 3×3 mm collimator. A Gafchromic RTQA2 film, with a sensitivity of 0.02 Gy, was placed underneath the cell dishes in order to delineate the irradiated zone.
Cells were fixed for 25 min with 4% formaldehyde (VWR) and blocked for 30 min with blocking buffer (5% normal goat serum, 1% bovine serum albumin (BSA), 0.2% Triton X-100 in PBS D+). Overnight incubation with primary antibody (1/500 anti-γ-H2AX in dilution buffer, 1/10 blocking buffer in PBS D+) was followed by a 1 h incubation with 1/400 XX-biotin-goat-anti-mouse antibody in dilution buffer, followed by a 1 h incubation with 1/400 streptavidin-alexa488 in PBS D+. Nuclei were stained with 1 μg/mL DAPI in PBS D+ for 10 min and cells were kept in PBS D+ supplemented with NaN3 at 4° C. All steps except the overnight incubation which was carried out at 4° C., were carried out at room temperature and cell cultures were rinsed thoroughly with PBS D+ between all incubation steps. Imaging was performed with an automated BD Pathway 435 imaging system (10× objective, 10×10 montage resulting in an overall image size of 8.5×6.5 mm). We then quantified the number of γ-H2AX-foci positive nuclei in the directly irradiated and bystander areas and expressed the count as a percentage relative to the number of nuclei and subtracted the percentage of background γ-H2AX signal in non-irradiated paired control cultures for each experiment. For counting γ-H2AX foci, images were thresholded to remove background pixel noise below the foci level. Where applicable, results were normalized against vehicle (bar charts with a 100% vehicle bar without statistical variability or a horizontal line).

RBE4 cells = assay: Irradiation-induced ATP release, RBE4 cells; format: cell-based, rat; conditions: broad-beam 1 Gy, 5 min post-irradiation, BAPTA-AM 10 μM, NALC 1 mM, c-PTIO 100 μM
Procedure: ATP was measured using a luciferin-luciferase assay kit (Sigma-Aldrich) in combination with a luminometer plate reader (Victor3 1420 multi label counter; Perkin Elmer, Zaventem, Belgium).
Extracellular ATP measurements were initially carried out at different time-points post-irradiation, the effect of blockers on ATP release was tested at the 5 min post-irradiation time-point (time of maximum ATP release).

[4] = biological target: hemichannels composed of Cx43 (Homo sapiens, UniProt P17302); conditions: cited from earlier work
Sequence of hemichannels composed of Cx43 (P17302 whole entry): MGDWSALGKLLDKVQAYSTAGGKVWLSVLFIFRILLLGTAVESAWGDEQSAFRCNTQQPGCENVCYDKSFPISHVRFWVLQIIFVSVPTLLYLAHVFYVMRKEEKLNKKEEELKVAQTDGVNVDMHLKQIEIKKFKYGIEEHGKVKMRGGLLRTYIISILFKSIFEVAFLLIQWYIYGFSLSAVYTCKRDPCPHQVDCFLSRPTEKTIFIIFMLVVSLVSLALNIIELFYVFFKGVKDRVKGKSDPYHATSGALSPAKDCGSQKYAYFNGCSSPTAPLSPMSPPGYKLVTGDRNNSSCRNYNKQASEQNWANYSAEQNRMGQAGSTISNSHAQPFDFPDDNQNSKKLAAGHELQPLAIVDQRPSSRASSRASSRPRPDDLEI

[5] = tested on: non-alcoholic fatty liver mouse model; conditions: cited from earlier work

T1 sequence (P17302 whole entry): as above

Substance: TAT-Gap19: connexin mimetic peptide, amino-acids 128-136 of the CL of Cx43 (SEQ ID NO: 2), Gap19 linked to TAT sequence; Cx43 hemichannel inhibitor (YGRKKRRQRRRKQIEIKKFK)
- radiation-induced ATP release (Cx43 hemichannels [1]; 100 μM TAT-Gap19, fractionated irradiation 0.1 and 5 Gy, 72 h p.i.): significantly inhibited the 5 Gy responses only
- radiation-induced ATP release (Cx43 hemichannels [1]; 100 μM TAT-Gap19, single 0.1 and 5 Gy, 1 h p.i.): no inhibition was observed
- radiation-induced ATP release (Cx43 hemichannels [1]; 100 μM TAT-Gap19, single 5 Gy, all cases except 1 h p.i. (6 h, 72 h)): significantly reduced the ATP release
- radiation-induced PI dye uptake (Cx43 hemichannels [2]; 100 μM TAT-Gap19, fractionated 5 Gy, 72 h): had no effect
- radiation-induced PI dye uptake (Cx43 hemichannels [2]; 100 μM TAT-Gap19, single irradiation, 72 h p.i.): most clear and significant at the 72 h p.i. time point
- γ-H2AX counts in the bystander zone (normalized to vehicle) [3]: only had effect in the bystander zone
- γ-H2AX counts in the irradiated area (normalized to vehicle) [3]: only had effect in the bystander zone
- irradiation-induced ATP release (RBE4 cells): inhibited
- half-time of Cx43 hemichannel block [4]: 100 s
- IL-1B [5]: significantly decrease
- TNF-α [5]: significantly decrease

From patent publication US20200384072A1, “THERAPY OF IONIZING RADIATION-INDUCED DISORDERS” (SCK-CEN, priority 2019, published 2020)
